The source of these data is publication PMC8329713, “The identification and structural analysis of potential 14-3-3 interaction sites on the bone regulator protein Schnurri-3” (Acta Crystallographica. Section F, Structural Biology …, 2021).

One test has as its target T1, 14-3-3σ (full length) (human, UniProt P31947 1-248).
T1 construct: 14-3-3 protein sigma, human, full length; Expressed from a pPRoeX-Htb vector; also called 14-3-3 isoform σ; the σ isoform; source: E. coli NiCo21(DE3), purified (nickel column, TEV cleavage, second nickel column, SEC)
T1 sequence (looked up): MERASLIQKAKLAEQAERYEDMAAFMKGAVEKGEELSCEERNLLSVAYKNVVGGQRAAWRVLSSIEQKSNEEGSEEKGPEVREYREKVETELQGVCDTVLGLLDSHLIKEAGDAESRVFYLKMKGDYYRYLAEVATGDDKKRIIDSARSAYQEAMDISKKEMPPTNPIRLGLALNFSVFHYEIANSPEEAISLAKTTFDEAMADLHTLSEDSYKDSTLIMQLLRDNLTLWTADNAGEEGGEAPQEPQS
The test is described as follows: fluorescence polarisation; 14-3-3 isoforms (full length) serially diluted twofold in the presence of 10 nM FITC-labelled peptide; 50 mM Tris pH 7.5, 150 mM NaCl, 5 mM MgCl2, 0.05% Tween-20 (no reducing agent listed); one-site specific binding model. The note with it: both partners purified.

Another test concerns the target T2, 14-3-3η (full length) (human, UniProt Q04917 1-246).
T2 construct: 14-3-3 protein eta, human, full length; Expressed from a pPRoeX-Htb vector; also called 14-3-3 isoform η; source: E. coli NiCo21(DE3), purified (nickel column, TEV cleavage, second nickel column, SEC)
T2 sequence (looked up): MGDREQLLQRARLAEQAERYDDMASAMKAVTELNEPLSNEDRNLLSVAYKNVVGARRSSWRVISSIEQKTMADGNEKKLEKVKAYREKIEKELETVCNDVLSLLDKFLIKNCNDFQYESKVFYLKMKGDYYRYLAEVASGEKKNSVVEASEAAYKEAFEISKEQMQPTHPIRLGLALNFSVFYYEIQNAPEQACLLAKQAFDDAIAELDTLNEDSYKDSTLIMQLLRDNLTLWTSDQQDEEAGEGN
Described as above. The note with it: both partners purified.

The target of test [1] is T3, 14-3-3ζ (full length) (human, UniProt P63104 1-245).
T3 construct: 14-3-3 protein zeta/delta, human, full length; Expressed from a pPRoeX-Htb vector; also called 14-3-3 isoform ζ; source: E. coli NiCo21(DE3), purified (nickel column, TEV cleavage, second nickel column, SEC)
T3 sequence (looked up): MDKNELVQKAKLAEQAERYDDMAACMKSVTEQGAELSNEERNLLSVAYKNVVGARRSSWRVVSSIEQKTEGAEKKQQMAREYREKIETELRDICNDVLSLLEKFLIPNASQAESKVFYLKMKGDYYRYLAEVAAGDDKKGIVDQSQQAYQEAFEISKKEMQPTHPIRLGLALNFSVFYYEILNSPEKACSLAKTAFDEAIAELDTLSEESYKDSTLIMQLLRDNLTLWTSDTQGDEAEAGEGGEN
Described as above. The note with it: both partners purified.

A further test has as its target T4, 14-3-3γ (full length) (human, UniProt P61981 1-247).
T4 construct: 14-3-3 protein gamma, human, full length; Expressed from a pPRoeX-Htb vector; also called 14-3-3 isoform γ; source: E. coli NiCo21(DE3), purified (nickel column, TEV cleavage, second nickel column, SEC)
T4 sequence (looked up): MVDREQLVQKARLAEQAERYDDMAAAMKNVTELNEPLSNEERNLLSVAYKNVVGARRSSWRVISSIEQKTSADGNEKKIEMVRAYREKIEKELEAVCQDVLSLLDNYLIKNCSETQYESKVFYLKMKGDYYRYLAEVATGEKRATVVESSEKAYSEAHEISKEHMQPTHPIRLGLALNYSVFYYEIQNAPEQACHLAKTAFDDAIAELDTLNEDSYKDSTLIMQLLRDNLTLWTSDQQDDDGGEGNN
The description is as above. The settings on record: both partners purified.

Another test addresses T5, 14-3-3τ (full length) (human, UniProt P27348 1-245).
T5 chain: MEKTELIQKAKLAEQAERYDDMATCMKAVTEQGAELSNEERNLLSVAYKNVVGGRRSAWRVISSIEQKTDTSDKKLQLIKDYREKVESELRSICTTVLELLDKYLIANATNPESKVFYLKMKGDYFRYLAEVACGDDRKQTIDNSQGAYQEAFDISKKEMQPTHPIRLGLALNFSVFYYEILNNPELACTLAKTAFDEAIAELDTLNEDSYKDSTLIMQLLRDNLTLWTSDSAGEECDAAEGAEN
The test is described as follows: FP.

Test [2] concerns the target T6, 14-3-3ζ (full length) (human, UniProt P63104 1-245).
T6 chain: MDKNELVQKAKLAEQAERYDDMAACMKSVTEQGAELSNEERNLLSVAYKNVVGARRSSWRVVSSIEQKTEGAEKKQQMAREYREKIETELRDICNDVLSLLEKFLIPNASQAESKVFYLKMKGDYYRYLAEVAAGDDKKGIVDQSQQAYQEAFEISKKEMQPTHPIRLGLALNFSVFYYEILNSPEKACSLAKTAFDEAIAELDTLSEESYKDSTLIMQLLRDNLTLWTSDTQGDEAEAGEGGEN
As to the kind of experiment: FP.

Another test addresses T7, 14-3-3β (full length) (human, UniProt P31946 1-246).
T7 chain: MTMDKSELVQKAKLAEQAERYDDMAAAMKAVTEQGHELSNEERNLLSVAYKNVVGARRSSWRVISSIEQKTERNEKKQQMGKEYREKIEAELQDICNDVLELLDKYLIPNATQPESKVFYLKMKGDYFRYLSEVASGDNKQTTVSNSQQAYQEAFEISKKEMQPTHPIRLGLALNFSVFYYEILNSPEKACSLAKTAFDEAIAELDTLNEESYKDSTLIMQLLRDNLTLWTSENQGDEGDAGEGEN
The test is described as follows: FP.

Another test deals with T8, 14-3-3ɛ (full length) (human, UniProt P62258 1-255).
T8 chain: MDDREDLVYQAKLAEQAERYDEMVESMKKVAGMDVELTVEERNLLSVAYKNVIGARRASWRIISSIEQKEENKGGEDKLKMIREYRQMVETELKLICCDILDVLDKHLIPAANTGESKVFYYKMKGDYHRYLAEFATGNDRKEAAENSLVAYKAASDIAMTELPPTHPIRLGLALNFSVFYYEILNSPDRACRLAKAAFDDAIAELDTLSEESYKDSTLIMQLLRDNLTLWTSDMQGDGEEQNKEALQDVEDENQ
The test is described as follows: FP.

Non-standard residues stand in square brackets, D forms with d. No end group written: not given here. *: point of attachment. FITC = O=C1OC2(c3ccc(O)cc3Oc3cc(O)ccc32)c2ccc(NC(=S)*)cc21; pS = N[C@@H](COP(=O)(O)O)C(=O)O; Ahx = NCCCCCC(=O)O

B1: SHN3pS542 peptide, N-terminally FITC-Ahx-labelled (peptide)
peptide: {FITC-Ahx}-LLRSH[pS]MPSAAC
modifications: also: phosphoserine at 542, position not mapped
notes: Schnurri-3 (SHN3, transcription factor HIVEP3), human, 12-mer around phosphorylated Ser542; also called SHN3pS542-FITC; the FITC-labelled form; source: synthetic peptide, bought: GenScript (purity >95%)
For the molecule B1, the Kd came out at 0.026 ± 0.002 µM with 14-3-3σ (full length); 0.69 ± 0.06 µM with 14-3-3η (full length); 0.78 ± 0.05 µM with 14-3-3γ (full length); 1.91 µM in the test with 14-3-3τ (full length); 2.14 µM with 14-3-3ζ (full length) [2]; 1.38 µM in the test with 14-3-3β (full length). Also, the Kd with 14-3-3ɛ (full length) amounted to 2.51 µM. In addition, the binding result in the test with 14-3-3ζ (full length) [1] is “binds”.

Usually Kd stands for the constant that tells how readily two partners part at equilibrium.
